In patent publication US20100028347A1:
Values belong to the substance of their own block, whether it stands above or below them.

What was measured:
[1] = target: human VEGFR-2 alkaline phosphatase (human) (UniProt P35968); experiment: ELISA: antibody dilutions on plate coated with 1 µg/ml human VEGFR-2 alkaline phosphatase, HRP secondary, O.D. 450
[2] = target: human VEGFR-2 alkaline phosphatase (human) (UniProt P35968); experiment: ELISA: plate coated with huVEGFR-2-AP 100 ng/well, goat anti-human kappa-HRP, O.D. 450
[3] = target: native VEGFR-1 expressed on the cell surface (human) (UniProt P17948); experiment: flow cytometry on PAE-VEGFR-1 cells, FITC goat anti-human IgG
[4] = target: mouse VEGFR-1 Fc (mouse) (UniProt P35969); experiment: ELISA: antibody dilutions on plate coated with 1 µg/ml mouse VEGFR-1 Fc, HRP secondary, O.D. 450
[5] = target: mouse VEGFR-1-AP (mouse) (UniProt P35969); experiment: ELISA: plate coated with mouse VEGFR-1-AP 100 ng/well, goat anti-rat IgG-HRP, O.D. 450
Chain of mouse VEGFR-1-AP (mouse) (P35969 23-759): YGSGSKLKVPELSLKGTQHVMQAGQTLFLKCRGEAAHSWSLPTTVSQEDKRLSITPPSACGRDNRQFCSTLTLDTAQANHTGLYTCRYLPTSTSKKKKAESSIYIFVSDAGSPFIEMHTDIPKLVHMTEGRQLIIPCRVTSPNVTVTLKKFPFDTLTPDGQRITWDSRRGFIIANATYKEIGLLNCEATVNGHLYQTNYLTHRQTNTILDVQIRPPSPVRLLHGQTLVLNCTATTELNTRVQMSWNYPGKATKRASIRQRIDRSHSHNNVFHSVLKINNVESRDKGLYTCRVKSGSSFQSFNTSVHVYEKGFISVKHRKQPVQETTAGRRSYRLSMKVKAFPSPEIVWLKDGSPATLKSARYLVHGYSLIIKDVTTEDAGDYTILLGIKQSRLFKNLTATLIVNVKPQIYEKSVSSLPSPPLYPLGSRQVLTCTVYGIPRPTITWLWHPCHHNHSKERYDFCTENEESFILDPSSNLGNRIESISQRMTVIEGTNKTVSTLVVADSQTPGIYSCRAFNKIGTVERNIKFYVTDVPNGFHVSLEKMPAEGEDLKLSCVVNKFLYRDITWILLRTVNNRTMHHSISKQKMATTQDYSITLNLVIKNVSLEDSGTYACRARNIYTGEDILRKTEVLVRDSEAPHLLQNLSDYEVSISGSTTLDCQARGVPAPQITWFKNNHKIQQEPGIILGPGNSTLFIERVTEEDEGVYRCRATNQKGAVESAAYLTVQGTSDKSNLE

Chain of human VEGFR-2 alkaline phosphatase (human) (P35968 20-764): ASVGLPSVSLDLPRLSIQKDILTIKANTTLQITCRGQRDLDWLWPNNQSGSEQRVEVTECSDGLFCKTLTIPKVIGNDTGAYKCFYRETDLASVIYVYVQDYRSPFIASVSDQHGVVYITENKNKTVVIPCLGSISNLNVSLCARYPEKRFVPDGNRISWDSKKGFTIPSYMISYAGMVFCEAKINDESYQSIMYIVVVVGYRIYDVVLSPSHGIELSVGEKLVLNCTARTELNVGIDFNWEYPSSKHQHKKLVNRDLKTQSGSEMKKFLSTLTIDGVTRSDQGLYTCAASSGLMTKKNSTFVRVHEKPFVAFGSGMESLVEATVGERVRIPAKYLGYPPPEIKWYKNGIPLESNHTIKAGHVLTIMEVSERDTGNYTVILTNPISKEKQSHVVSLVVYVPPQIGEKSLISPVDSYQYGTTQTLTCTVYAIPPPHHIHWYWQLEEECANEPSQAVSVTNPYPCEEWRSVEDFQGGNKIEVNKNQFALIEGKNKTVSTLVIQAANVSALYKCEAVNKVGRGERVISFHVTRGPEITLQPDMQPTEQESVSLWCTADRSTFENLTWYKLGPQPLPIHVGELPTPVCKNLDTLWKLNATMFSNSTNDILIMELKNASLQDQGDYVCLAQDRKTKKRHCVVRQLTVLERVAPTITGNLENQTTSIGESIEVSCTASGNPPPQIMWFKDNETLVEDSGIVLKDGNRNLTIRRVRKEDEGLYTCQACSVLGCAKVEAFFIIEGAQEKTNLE
Chain of mouse VEGFR-1 Fc (mouse) (P35969 23-759 limits assumed): as the sequence (P35969 23-759) above
Chain of native VEGFR-1 expressed on the cell surface (human) (P17948 27-1338): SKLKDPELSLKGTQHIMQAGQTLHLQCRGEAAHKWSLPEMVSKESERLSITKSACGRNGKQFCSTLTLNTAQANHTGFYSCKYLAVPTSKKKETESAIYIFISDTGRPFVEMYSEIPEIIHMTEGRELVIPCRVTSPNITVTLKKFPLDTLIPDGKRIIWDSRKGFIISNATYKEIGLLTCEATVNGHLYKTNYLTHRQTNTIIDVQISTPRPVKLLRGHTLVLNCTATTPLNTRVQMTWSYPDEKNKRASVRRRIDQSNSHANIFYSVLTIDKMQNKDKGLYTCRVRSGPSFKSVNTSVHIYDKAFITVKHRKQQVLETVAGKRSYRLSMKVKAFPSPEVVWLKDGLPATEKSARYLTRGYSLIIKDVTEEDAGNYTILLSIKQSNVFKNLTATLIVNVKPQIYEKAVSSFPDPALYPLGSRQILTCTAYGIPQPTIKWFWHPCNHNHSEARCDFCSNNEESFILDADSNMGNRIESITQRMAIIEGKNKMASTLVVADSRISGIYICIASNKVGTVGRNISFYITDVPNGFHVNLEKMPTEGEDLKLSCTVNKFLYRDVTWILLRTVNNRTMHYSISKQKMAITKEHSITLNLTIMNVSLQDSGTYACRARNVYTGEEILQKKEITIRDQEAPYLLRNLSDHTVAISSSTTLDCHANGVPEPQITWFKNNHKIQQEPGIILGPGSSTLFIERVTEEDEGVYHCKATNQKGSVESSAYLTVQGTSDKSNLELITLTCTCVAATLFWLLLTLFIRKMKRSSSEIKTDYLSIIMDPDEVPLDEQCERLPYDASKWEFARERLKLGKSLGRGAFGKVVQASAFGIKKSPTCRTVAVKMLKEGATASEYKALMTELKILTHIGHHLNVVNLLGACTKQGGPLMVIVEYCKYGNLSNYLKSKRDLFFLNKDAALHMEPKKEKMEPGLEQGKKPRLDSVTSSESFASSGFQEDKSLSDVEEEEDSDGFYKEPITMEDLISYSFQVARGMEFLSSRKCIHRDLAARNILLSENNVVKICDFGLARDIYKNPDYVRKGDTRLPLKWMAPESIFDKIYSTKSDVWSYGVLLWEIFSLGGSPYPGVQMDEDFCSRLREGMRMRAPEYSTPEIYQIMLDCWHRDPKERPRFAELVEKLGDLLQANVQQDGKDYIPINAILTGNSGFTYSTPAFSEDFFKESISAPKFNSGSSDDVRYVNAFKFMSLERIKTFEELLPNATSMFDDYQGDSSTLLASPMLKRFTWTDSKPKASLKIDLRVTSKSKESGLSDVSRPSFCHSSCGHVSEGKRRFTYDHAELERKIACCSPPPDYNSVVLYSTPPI

- EC50 (read off the curve) [1]: 8 ng/mL
- EC50 (read off the curve) [2]: 8 ng/mL
Substance: 1C11 (antibody)

- MFI [3]: 2.6
Substance: Control IgG (antibody)

- EC50 (read off the curve) [4]: 0.8 ng/mL
- EC50 (read off the curve) [5]: 0.8 ng/mL
Substance: rat anti-mouse VEGFR-1 antibody MF1
